Test results reported in patent US20120316071A1 (published 2012).
Residue numbers refer to the chain shown, from its start. Names may count otherwise. Blank lines part the entries; values can stand above or below the binder they belong to.

Legend:
Recombinant Human DLL4 = target: T1, Recombinant Human DLL4 (human, UniProt Q9NR61 27-524); experiment: ECL (MSD) multispot binding assay, DLL4 spotted on plate, Fab in solution
T1 construct: also called delta-like protein 4; rHuman DLL4

[1] = target: T2, Recombinant Human DLL4 (delta-like protein 4) (human, UniProt Q9NR61 27-524); experiment: ELISA, DLL4 coated on plate, Fab at 0.31 nM, absorbance at 450 nm
T2 construct: Bought recombinant protein (R&D Systems Cat#1506-D4/CF) coated on the ELISA plate; also called rHuman DLL4; Delta-like 4

[2] = target: T2, Recombinant Human DLL4 (delta-like …); experiment: ELISA, DLL4 coated on plate, Fab at 1.3 nM, absorbance at 450 nm
[3] = target: T2, Recombinant Human DLL4 (delta-like …); experiment: ELISA, DLL4 coated on plate, Fab at 5 nM, absorbance at 450 nm
[4] = target: T2, Recombinant Human DLL4 (delta-like …); experiment: ELISA, DLL4 coated on plate, Fab at 10 nM, absorbance at 450 nm
[5] = target: T2, Recombinant Human DLL4 (delta-like …); experiment: ELISA, DLL4 coated on plate, Fab at 2.5 nM, absorbance at 450 nm
[6] = target: T2, Recombinant Human DLL4 (delta-like …); experiment: ELISA, DLL4 coated on plate, Fab at 0.16 nM, absorbance at 450 nm
[7] = target: T2, Recombinant Human DLL4 (delta-like …); experiment: ELISA, DLL4 coated on plate, Fab at 0.63 nM, absorbance at 450 nm
[8] = target: T2, Recombinant Human DLL4 (delta-like …); experiment: ELISA, DLL4 coated on plate, Fab at 20 nM, absorbance at 450 nm
[9] = target: T3, Recombinant Human DLL4 (R&D Systems Cat#1506-D4/CF) (human, UniProt Q9NR61 27-524); experiment: ELISA titration, 2-fold dilutions from 20 nM Fab
T3 construct: bought recombinant protein; also called rHuman DLL4; delta-like protein 4

[10] = target: T4, rHuman IGF-1 sR, CF (R&D Systems Cat#391-GR) (human, UniProt P08069 31-932); experiment: ECL multispot (MSD) binding assay; antigen spotted on plate, Fab in solution, Ru-labelled anti-kappa detection;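 also: purified Fab in 1% BSA TBST incubated 1 h at 20 °C with shaking, signal compared with each well's blank, signal/blank ratio of 4 or above counted as binder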
T4 construct: Bought from R&D Systems as a soluble receptor; also called insulin-like growth factor-1 soluble receptor

[11] = target: T5, rHuman P-Cadherin/Fc Chimera, CF (R&D Systems Cat#861-PC) (human, UniProt P22223 108-654); experiment: as above
T5 construct: Bought from R&D Systems; Fc part of the bought chimera not given

[12] = target: T6, Recombinant Human DLL4 (R&D Systems Cat#1506-D4/CF) (human, UniProt Q9NR61 27-524); experiment: as above
T6 construct: Bought from R&D Systems; also called delta-like protein 4; rHuman DLL4

[13] = target: T7, rHuman HGF R/c-MET/Fc Chimera, CF (R&D Systems Cat#358-MT/CF) (human, UniProt P08581 25-932); experiment: as above
T7 construct: Bought from R&D Systems; also called HGF R/Fc; hepatocyte growth factor receptor; Fc part of the bought chimera not given
T7 sequence (P08581 25-932, change not shown): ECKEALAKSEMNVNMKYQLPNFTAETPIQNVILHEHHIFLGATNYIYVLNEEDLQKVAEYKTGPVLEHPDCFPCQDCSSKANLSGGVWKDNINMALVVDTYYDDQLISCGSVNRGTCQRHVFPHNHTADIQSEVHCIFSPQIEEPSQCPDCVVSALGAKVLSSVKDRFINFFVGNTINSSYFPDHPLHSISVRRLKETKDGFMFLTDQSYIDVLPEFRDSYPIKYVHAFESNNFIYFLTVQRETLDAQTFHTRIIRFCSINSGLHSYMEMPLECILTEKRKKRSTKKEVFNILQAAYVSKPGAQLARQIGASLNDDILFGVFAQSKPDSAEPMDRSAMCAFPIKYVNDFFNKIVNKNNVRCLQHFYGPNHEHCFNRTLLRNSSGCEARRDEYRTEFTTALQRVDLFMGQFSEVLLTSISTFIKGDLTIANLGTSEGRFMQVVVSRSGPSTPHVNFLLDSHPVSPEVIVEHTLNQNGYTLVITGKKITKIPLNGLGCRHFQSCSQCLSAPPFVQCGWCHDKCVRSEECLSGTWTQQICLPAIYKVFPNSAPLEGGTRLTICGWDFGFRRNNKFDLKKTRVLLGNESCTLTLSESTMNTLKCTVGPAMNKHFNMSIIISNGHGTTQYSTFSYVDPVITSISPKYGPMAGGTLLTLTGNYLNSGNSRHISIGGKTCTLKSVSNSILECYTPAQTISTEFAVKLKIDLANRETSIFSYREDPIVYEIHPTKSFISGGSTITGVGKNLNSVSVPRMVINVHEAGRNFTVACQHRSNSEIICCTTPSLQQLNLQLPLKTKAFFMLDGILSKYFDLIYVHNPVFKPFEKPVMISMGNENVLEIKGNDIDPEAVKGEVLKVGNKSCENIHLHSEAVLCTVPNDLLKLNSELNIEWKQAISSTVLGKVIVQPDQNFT

[14] = target: T8, rHuman EGF R/Fc Chimera, CF (R&D Systems Cat#344-ER) (human, UniProt P00533 25-645); experiment: as above
T8 construct: Bought from R&D Systems; also called epidermal growth factor receptor; Fc part of the bought chimera not given

B1: Fab VH1-46_IGHD6-6*01_IGHJ1*01 S102A/S103P/S104F/H111F (APFF) & L6_IGKJ1*01 W94R (Fab, V domains shown)
VH: QVQLVQSGAEVKKPGASVKVSCKASGYTFTSYYMHWVRQAPGQGLEWMGIINPSGGSTSYAQKFQGRVTMTRDTSTSTVYMELSSLRSEDTAVYYCAREEYAPFSAEYFQFWGQGTLVTVSS
VL: EIVLTQSPATLSLSPGERATLSCRASQSVSSYLAWYQQKPGQAPRLLIYDASNRATGIPARFSGSGSGTDFTLTISSLEPEDFAVYYCQQRSNRPPWTFGQGTKVEIKR
notes: Fab from E. coli; VH in Plasmid A (CH1, His6 and Flag tags), VL in Plasmid C (kappa CL); also called APFF & W94R
ECL signal (Recombinant Human DLL4): 75800

B5: Fab VH1-46_IGHD6-6*01_IGHJ1*01 S102A/S103P/S104F/H111F I51T/N52V & L6_IGKJ1*01 (Fab, V domains shown)
VH: B1 VH with I51T, N52V
VL: not shown
notes: Fab; also called APFF I51T/N52V
Kd [9]: 10 to 100 nM

B6: Fab VH1-46_IGHD6-6*01_IGHJ1*01 S102A/S103P/S104F/H111F (APFF) & L6_IGKJ1*01 W94S (Fab, V domains shown)
VH: B1 VH
VL: B1 VL with R94S
notes: Fab from E. coli; VH in Plasmid A (CH1, His6 and Flag tags), VL in Plasmid C (kappa CL); also called APFF & W94S
ECL signal (Recombinant Human DLL4): 109000

B7: Fab VH1-46_IGHD6-6*01_IGHJ1*01 S102A/S103P/S104F/H111F I51T/N52L/P53A/S54T/G56H & L6_IGKJ1*01 (Fab, V domains shown)
VH: B1 VH with I51T, N52L, P53A, S54T, G56H
VL: not shown
notes: Fab; also called APFF TLATH
Kd [9]: > 100 nM

B8: Fab VH1-46_IGHD6-6*01_IGHJ1*01 S102A/S103P/S104F/H111F F29A & L6_IGKJ1*01 (Fab, V domains shown)
VH: B1 VH with F29A
VL: not shown
notes: Tested as a Fab made in E. coli; The heavy chain vector (Plasmid A) adds CH1 with His6 and Flag tags; The light chain vector (Plasmid C) adds kappa CL; also called APFF F29A
ECL signal [10]: 439
ECL signal [11]: 508
ECL signal [12]: 109000
ECL signal [13]: 512
ECL signal [14]: 537

B10: Fab VH1-46_IGHD6-6*01_IGHJ1*01 S102A/S103P/S104F/H111F (APFF) & L6_IGKJ1*01 W94T (Fab, V domains shown)
VH: B1 VH
VL: B1 VL with R94T
notes: Fab from E. coli; VH in Plasmid A (CH1, His6 and Flag tags), VL in Plasmid C (kappa CL); also called APFF & W94T
ECL signal (Recombinant Human DLL4): 23200

Next, values leading:

ELISA signal [1]: 1.11
ELISA signal [2]: 0.078
ELISA signal [3]: 1.27
ELISA signal [4]: 0.875
ELISA signal [5]: 0.592
ELISA signal [6]: 0.875
ELISA signal [7]: 0.227
ELISA signal [8]: 1.11
B2: Fab VH1-46_IGHD6-6*01_IGHJ1*01 S102A/S103P/S104F/H111F/I51T/N52L/P53A/S54T/G56H (APFF TLATH) & L6_IGKJ1*01 (Fab, V domains shown)
VH: B1 VH with I51T, N52L, P53A, S54T, G56H
VL: not shown
notes: Tested as a Fab made in E. coli: VH in Plasmid A (CH1, His6 and Flag tags), kappa VL in Plasmid C (kappa CL)

Kd [9]: 1 to 10 nM
B3: Fab VH1-46_IGHD6-6*01_IGHJ1*01 S102A/S103P/S104F/H111F I51V/N52L/S54T/G56H & L6_IGKJ1*01 (Fab, V domains shown)
VH: B1 VH with I51V, N52L, S54T, G56H
VL: not shown
notes: Fab; also called APFF VLTH; APPF VLTH

Kd [9]: 1 to 10 nM
B4: Fab VH1-46_IGHD6-6*01_IGHJ1*01 S102A/S103P/S104F/H111F N52L/S54T/G56H & L6_IGKJ1*01 (Fab, V domains shown)
VH: B1 VH with N52L, S54T, G56H
VL: not shown
notes: Fab; also called H:APFF LTH & L:wt; APFF LTH

ELISA signal [1]: 2.05
ELISA signal [2]: 0.252
ELISA signal [3]: 2.2
ELISA signal [4]: 1.85
ELISA signal [5]: 1.66
ELISA signal [6]: 1.85
ELISA signal [7]: 0.785
ELISA signal [8]: 2.05
B9: Fab VH1-46_IGHD6-6*01_IGHJ1*01 S102A/S103P/S104F/H111F/I51V/N52L/S54T/G56H (APFF VLTH) & L6_IGKJ1*01 (Fab, V domains shown)
VH: B1 VH with I51V, N52L, S54T, G56H
VL: not shown
notes: Tested as a Fab made in E. coli: VH in Plasmid A (CH1, His6 and Flag tags), kappa VL in Plasmid C (kappa CL); also called APPF VLTH
